For assay [1], the target named is keratin of human hair. The experiment in a line: quantitative hair binding test: human hair incubated with His-tagged comparison protein, detection with anti-polyhistidine peroxidase conjugate and TMB, absorption at 405 nm.
The target of assay [2] is keratin of human hair. The experiment in a line: quantitative hair binding test: human hair incubated with renatured His-tagged KBD-B, detection with anti-polyhistidine peroxidase conjugate and TMB, absorption at 405 nm.
Assay [3] concerns the target keratin of human hair. Nature of the assay: quantitative hair binding test with the denatured (not renatured) protein: human hair, detection with anti-polyhistidine peroxidase conjugate and TMB, absorption at 405 nm.

The molecule “YaaD from B. subtilis (comparison protein, with His tag) (from UniProt P37527)” had an A405 nm with keratin of human hair [1] of 0.088.

B1: KBD-B (keratin-binding domain B of human desmoplakin), expressed by the vector pQE30-KBD-B in E. coli (protein)
chain: MRGSHHHHHHGSACELEPHTGLLLLSVQKRSMSFQGIRQPVTVTELVDSGILRPSTVNELESGQISYDEVGERIKDFLQGSSCIAGIYNETTKQKLGIYEAMKIGLVRPGTALELLEAQAATGFIVDPVSNLRLPVEEAYKRGLVGIEFKEKLLSAERAVTGYNDPETGNIISLFQAMNKELIEKGHGIRLLEAQIATGGIIDPKESHRLPVDIAYKRGYFNEELSEILSDPSDDTKGFFDPNTEENLTYLQLKERCIKDEETGLCLLPLKEKKKQVQTSQKNTLRKRRVVIVDPETNKEMSVQEGVDLQPSLIS
Regarding B1, the A405 nm with keratin of human hair [2] came to 1.59; in the assay with keratin of human hair [3], 0.254.

The values are drawn from patent US20080075684A1.
